assay: yeast display, Sf9 membrane polyspecificity reagent, FACS + sequencing; frameworks hold sequencing errors
In short: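 Nanobodies from a synthetic yeast display library (Saccharomyces cerevisiae BJ5465), induced 36–48 hours with galactose, were stained 1 hour at 4 °C with 10% biotinylated, detergent-solubilized Sf9 membrane reagent, enriched on streptavidin microbeads, then FACS-sorted. Anti-HA (expression) and streptavidin (reagent binding) fluorescence set low and high (top ~1%) gates. Polyreactivity labels come from the gate of origin. Genes were colony-PCR amplified, MiSeq 2 × 250 sequenced and filtered by CDR length.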

Row | Sequence | polyreactivity (PSR sort gate)
1 | QVQLVESGGGLVQAGGSLRLTCAASGHIFFYYTMGWYRQAPGKERELVARISSDGDTYYADSVKGRFTISRDNAKNTVYLQMNSLKPEDTAVYYCAAAVLYWVGYGYWGQGTQVTVSS | low polyreactivity
2 | QVQLVESGGGLVQAGGSLRLTCAASGIIFGENARGWYRQAPGKERELVDAINSVGSTYYADSVKGRFTISRDNAKNTVYLQMNSLKPEDTAVYYCAAESWFLRWYRYDYWGQGTQVTVSS | low polyreactivity
3 | QVQLVESGGGLVQAGGSLRLTCAASGIIFGKYTMGWYRPAPGKERELVADISKRGGSTYYADSVKGRFTISRDHAKNTVYLQMNSLKPEDTAVYNCAAERISSYDYWGQGTQVTVSS | high polyreactivity
4 | QVQLVESGGGLVQAGGSLRLTCAASGIIFYGYAMGCYRQAPGKERELVADISFSGGRTYYSDSVKGRFTISRDNAKNTVYLQMNRLKQEDTAVYYCAKRRFYRTSQYVKYDYWGQGTQVTVSS | low polyreactivity
5 | QVQLVESGGGLVQAGGSLRLTCAASGITFKFYAMGWYRQAPGKESELVAAITSGGGSTYYADSVKGRFTISRDNAKNTVYLQMNILKPEDTAVYYCNTYSIAYYSPCYDYWGQGTQVNVSS | high polyreactivity
6 | QVQLVESGGGLVQAGGSLRLTCAASGITFYGNAMGWYRQAPGKERELVANTYYADSVKGRFTISRDNAKNTVYLQMNSLIAEDTAVYYCATRNARYRSQPPGYDYWGQGTQVTVSS | low polyreactivity
7 | QVQLVESGGGLVQAGGSLRLTCAASGLIFPRYAMGWYRQAPGKERELVAAISRRGGSTRYADSVKGRFTISRDNAKNTVYLQMNSLKPEDTAVYYCAAPDFPKYYPTAYLQADEYWGQGTQVTVSS | high polyreactivity
8 | QVQLVESGGGLVQAGGSLRLTCAASGLIFVAYAMGWYRQAPGKERELVAAISWSGGDTYYADSVKGRFTISRDNAKNTVYLQMNSLKPEDTAVYYCAADYYPYGYDSWGQGTQVTVSS | low polyreactivity
9 | QVQLVESGGGLVQAGGSLRLTCAASGLILVPNTMGWYRQAPGTERELVAAISYSGGGTYYADSVKGRFTISRDNAKNTVYLQMNSLKPEDTAVYYCAAYVKRESAPYGYWGQGTQVTVSS | low polyreactivity
10 | QVQLVESGGGLVQAGGSLRLTCAASGLTFERYAMGWYRQAPGKETELVAAISIRGGSTYYADSVKGRFTISRYNAKNTVYLQMNSLKPEVTAVYYCSADGRGREYDYWGQGTQVTVSS | low polyreactivity
11 | QVQLVESGGGLVQAGGSLRLTCAASGLTFYSNTMGWYIQAPGKERELVAAISWTGTSTYYADSVKVRFTISRDNAKNTVFLQMNSLKAEDTAVYYWNALGYARSYDSWGQGTQVTVSS | high polyreactivity
12 | QVQLVESGGGLVQAGGSLRLTCAASGNIFGIYTMGWYRQAPGKEREFFAVISLSGTSTYYADSVKGRFTISRDNAKNTVYLQMKSLKPEDTAVYYCNARTPHNKGRRRAYDYWGQATQVTVSS | high polyreactivity
13 | QVQLVESGGGLVQAGGSLRLTCAASGNTFFFNTMGWYRQAPGKERELVAVISSSGGTYYADSVKGRFTISRDNAKNTVYLQMNSLKQEDTAVYYCNADWHTHGYPTGKTGFKYYYWGQGTQVTVSS | low polyreactivity
14 | QVQLVESGGGLVQAGGSLRLTCAASGNTFVGNAMGWYRQAPGKERELVAAISRRGGSTYYADSVKGRFTISRDYAKNTVYLQMNSLKPEDTAEYYCAVGWAGRYDYWGQGTQVTVSS | low polyreactivity
15 | QVQLVESGGGLVQAGGSLRLTCAASGRIAWYRQAPGKERELVAAITSGDRTNYADSVKRRFTISRDNAKNTVYFQMNSLKPEDTAVYYCATEPSWYHGFIDPRGYWGQGTQVTVSS | low polyreactivity
16 | QVQLVESGGGLVQAGGSLRLTCAASGRICSNYAMGWYRPARGKERELLAAITVIGGRTYYADSVKGRFTISRDNPKNTVYLHMNSPKPEDTAVYYCAATPRRPWFYGSDYWGQGTQVTVSS | high polyreactivity
17 | QVQLVESGGGLVQAGGSLRLTCAASGRIFDGYAMGWYRQPPRKERELVAAISSRGGRTYYADSVKGRFTISRDNAKNTVYLQMNSLKPEDTAVYYCAADDPYGEGDYWGQGTQVTVSS | low polyreactivity
18 | QVQLVESGGGLVQAGGSLRLTCAASGRIFGPYVLGWYRQAPGKERELVAAISTSGTSTYYADSVKGRFTISRDNAKNTVYLQMNSLKPEDTAVYYCAKRSGARHRLMDYWGQGTQVTVSS | low polyreactivity
19 | QVQLVESGGGLVQAGGSLRLTCAASGRIFGSYAMGWYRQAPGKERELVAAITRRGGSTYYADSVKGRFTISRDNAKNTVYLQMNSLKPEDTAVYYCAPERTSAYDYWGQGTQVTVSS | high polyreactivity
20 | QVQLVESGGGLVQAGGSLRLTCAASGRIFLINAMGWYRPAPGKERDLVATISRSGASTDYADSVKGRFTISRDNAKYIVYLQMKSMKPEDTAVYYCNAKVYKRRVVPYDYWGQGSQVTVSS | high polyreactivity
21 | QVQLVESGGGLVQAGGSLRLTCAASGRIFNTYAMGWYRQAPGKERELVAAITRSAGRTYYADSVKGRFTISRDNAKNTVYLQMNSLKPEDTAVYYCNAEGSSVLTGYCGYPPYWDTYDYWGQGTQVTLSS | low polyreactivity
22 | QVQLVESGGGLVQAGGSLRLTCAASGRIFSGYAMGWYRQEPGKEREFVASISTSGARTYYADSVKGRFTISRDNAKNTVYLQMNRLKPEDTAVYYCAKVIRWISYRGWYDYWGQGTQVTVSS | high polyreactivity

Row | Sequence | polyreactivity (PSR sort gate)
23 | QVQLVESGGGLVQAGGSLRLTCAASGRIFSRNAMGWYRQAPGKERELVAAISSSGGSTSYADSVKGRFTISRDNAKNTVYLQMNSLKPEDTAVYYCAADSYPAYLGFVGFDYWGQGTQVTVSS | low polyreactivity
24 | QVQLVESGGGLVQAGGSLRLTCAASGRIFSYNAMGWYRQAPGKERELVAAITGGGSTNYADSVKGRFTISRDNAKNTVFLQMNSLKPEDTAVYYCAARSWSYKYWGQGTQVTVSS | high polyreactivity
25 | QVQLVESGGGLVQAGGSLRLTCAASGRPFGKNGMGWYRQAPGKEREWVAAISLSGGSTYYADSVKGRFTISRDYAKNTVYLQMNSLKPEDTAVYYCAAYGIRGPVYQYYFWGQGTQVTVSS | low polyreactivity
26 | QVQLVESGGGLVQAGGSLRLTCAASGRTFAWYAMGWYRQAPGKERELVAAISSGGSTYYADSVKGRFTISRDNAKNTVYLQMDSLKPEDTAVYYCAAEWHYIYAYDYWGQGTQVTVSS | low polyreactivity
27 | QVQLVESGGGLVQAGGSLRLTCAASGRTFDCYAMGLYRQAPGKERELVAAISSRGGSTYYADSVKGRFTISRDNAKNTVYLQMNSLKPEDTSVYYCAKDLGYRGRYNYWGQGTQVTVSS | low polyreactivity
28 | QVQLVESGGGLVQAGGSLRLTCAASGRTFFVYAMGWYRPAPGKERELVASITLSGGSTYYADSVKGRFTISRDNAKNTVYLQMNSLKPEDTAVYYCAKGWSRDNDREREDEYWGQGTQVTVSS | low polyreactivity
29 | QVQLVESGGGLVQAGGSLRLTCAASGRTFPRYAMGWYRQAPGKERELVAAINSGGSTYYADSVKGRFTISRDNAKNSVYLQMNSLKPEDTAVYYCAAEGYTLGDGVYWIGPYDYWGQGTQLTVSS | high polyreactivity
30 | QVQLVESGGGLVQAGGSLRLTCAASGRTFQYNAMVWYRQAPGKERELVAAISSSGGSTYYADSVKGRFTISRDNAKNTVYLQMNSLKPEDTAVYYCNAYSQSWNFYGDGDYWGQGTQVTVSS | low polyreactivity
31 | QVQLVESGGGLVQAGGSLRLTCAASGRTFRIYAMGWYRQAPGKERELVAAIRWSGGTTYYADSVKGRFTISRDNAKNTVYFQMNSLKPEDTAVYYCAADSTNRYDYWGQGTQVTVSS | high polyreactivity
32 | QVQLVESGGGLVQAGGSLRLTCAASGRTFRPYAMGGYRQAPGKERQLVAAITYSGGSTYYADSVKGRFTISRDNAKNTVYLQMNSLKPEDTAVYYCAAEIAATYRPEYDYWGQGTQVTVSS | high polyreactivity
33 | QVQLVESGGGLVQAGGSLRLTCAASGSIFGAKAIGWYIQAPGKERELVAALTWSDTSTYYADSVKGRFTISRDNAKNTVYLQMNSLKPEDTAVYYCAAEYEWVTWGWGYYYWGQGTQVTVSS | high polyreactivity
34 | QVQLVESGGGLVQAGGSLRLTCAASGSIFGYAMGWSRQAPGKERELVAALSFSGVSTYYAYSVKGRFTISRDNAKNTVYLQMNSLKPEDTAVYYCNAYSDGDEDYWGQGTQVTVSS | low polyreactivity
35 | QVQLVESGGGLVQAGGSLRLTCAASGSIFTYYVRGWYRQAPGKEMELVARISRRGGSTYYADSVKGRFTISRDNAKNTVYLQMNSLKPEDTAFYYCNRVFYYDRDNYDYWGQGTQVTVSS | high polyreactivity
36 | QVQLVESGGGLVQAGGSLRLTCAASGSIFYRYVMGWYRQAPGKEMELVAVISGSGGNTYYADSVKGRFTISRDNAKNTVYLQRNSLTPDDTAVYYCAASWYFLPTQTRPYYGYYYWGQATQVTVSS | high polyreactivity
37 | QVQLVESGGGLVQAGGSLRLTCAASGSTFAFYAMGWYRQAPGKERELVAAITLIGGNTYYADSVKGRFTISRDNAKNTVYLQMYSLKPEDTAVYYFAAGGYYVRYPKSWYNYWGQGTQVTVSS | low polyreactivity
38 | QVQLVESGGGLVQAGGSLRLTCAASGSTFGVYAMGWYRQAPRKDRELFAAISSSTGSTYYADSVKGRFTISRHKAKNTVYLQRNSLKPEDTAVYYRAAAGYGKVRGDYWGQGTQVTVSS | low polyreactivity
39 | QVQLVESGGGLVQAGGSLRLTCAASGSTFHSNAMGWYREAPGKERELVAAISQGGGRTYYADSVKGRFTISRDNAKNTVYLQMNSLKPEDTAVYYCNRRTRGLIDGGMDYWGQGTQVTLSS | low polyreactivity
40 | QVQLVESGGGLVQAGGSLRLTCAASGSTFINYAMGWYRQAPGKERELVAAYADSVKGRFTISRDNAKNTVYLQMNSLKPEDTAVYYCNAVTGEWGQGTQVTVSS | low polyreactivity
41 | QVQLVESGGGLVQAGGSLRLTCAASGSTFITYAMGWYRQAPGKERELVAAIRVIGGRTYYADSVKGRFTISRDNAKNTVYLQMNSLKPEDTAVYYCAARPYKSYGYHYSYDYWGQGTQVTVSS | high polyreactivity
42 | QVQLVESGGGLVQAGGSLRLTCAASGSTFQTYVMGLYIQAPGKERELVAAISSGGSTNYADSVKGRFTISRDNAKNNVYLLMKSLKPEDTAVYYCAAVYWAWGKNEYEYWGQGTQVTVSS | low polyreactivity
43 | QVQLVESGGGLVQAGGSLRLTCAASGSTFQVNDMGWYRQAPGKDRELLASISGGSSTNYADSVKGRFTISRDNAKNTVYLQMHSLQPEDTAVYYCAAYYLSGLRVAYDYWGQGPQVTVSS | low polyreactivity
